± gives the uncertainty stated by the source.
B1: POU domain, class 3, transcription factor 1, residues 247 to 324; numbered along this chain, Q03052 (parent)
chain: EDAPSSDDLEQFAKQFKQRRIKLGFTQADVGLALGTLYGNVFSQTTICRFEALQLSFKNMCKLKPLLNKWLEETDSSS

Variants of: B1
Assay: abundance fitness (aPCA) (normalised: wild type 0, dead -1); higher = more abundant; growth selection in yeast, the domain comes from the species named
Details: Homo sapiens

Abundance fitness of substitutions, site by site:
E51: T -0.668 ± 0.14, F -0.756 ± 0.17, I -0.818 ± 0.17, L -1.08 ± 0.19, N -0.461 ± 0.13, K -0.414 ± 0.14, G -0.251 ± 0.16, H -0.98 ± 0.29, M -0.503 ± 0.28, Y -0.899 ± 0.19, R -0.501 ± 0.13, D -0.381 ± 0.17, S -0.723 ± 0.12, Q -0.686 ± 0.23, P -0.781 ± 0.14, A -0.65 ± 0.13, V -0.525 ± 0.13
K69: I 0.102 ± 0.15, N -0.249 ± 0.12, T -0.251 ± 0.074, W -0.671 ± 0.12, A -0.161 ± 0.048, Y -0.159 ± 0.14, C -0.361 ± 0.095, E -0.342 ± 0.072, D -0.19 ± 0.11, G -0.119 ± 0.041, P -0.662 ± 0.11, V -0.559 ± 0.071, Q -0.02 ± 0.057, M -0.144 ± 0.066, R -0.058 ± 0.041, H -0.254 ± 0.12
C61: H -0.357 ± 0.16, W -0.148 ± 0.057, T -0.384 ± 0.083, S -0.212 ± 0.058, F -0.538 ± 0.14, E -0.078 ± 0.062, I -0.134 ± 0.1, N -0.24 ± 0.17, K -0.043 ± 0.095, M -0.036 ± 0.064, A -0.001 ± 0.049, Y -0.164 ± 0.16, Q 0.017 ± 0.07, D -0.96 ± 0.25, P -0.988 ± 0.21, V 0.045 ± 0.044, R -0.065 ± 0.043, L -0.048 ± 0.05
S56: G -0.198 ± 0.046, E -0.31 ± 0.072, F -0.719 ± 0.26, K -0.309 ± 0.092, C -0.439 ± 0.1, V -0.945 ± 0.13, D 0.031 ± 0.088, M -0.818 ± 0.19, P 0.09 ± 0.073, Y -0.745 ± 0.23, H -0.724 ± 0.26, I -0.717 ± 0.48, R -0.501 ± 0.065, L -0.88 ± 0.12, A -0.472 ± 0.071, T -0.287 ± 0.077, Q -0.577 ± 0.12
L71: A -0.369 ± 0.077
N68: G -0.049 ± 0.046, L 0.038 ± 0.051, K 0.007 ± 0.078, H 0.108 ± 0.12, V -0.008 ± 0.053, S 0.02 ± 0.055, M 0.042 ± 0.063, A 0.029 ± 0.051, D -0.071 ± 0.1, P -0.763 ± 0.17, Y -0.162 ± 0.15, I -0.028 ± 0.1, F -0.175 ± 0.1, R -0.086 ± 0.046, T 0.145 ± 0.059, E 0.082 ± 0.059, W -0.118 ± 0.053, Q 0.011 ± 0.076
F57: V -0.144 ± 0.057, T -0.047 ± 0.091, Q 0.015 ± 0.11, M -0.048 ± 0.086, C -0.394 ± 0.14, P -0.014 ± 0.084, S -0.152 ± 0.072, A -0.142 ± 0.064, H 0.031 ± 0.13, Y 0.37 ± 0.17, L 0.003 ± 0.062, K 0.005 ± 0.094, G -0.275 ± 0.051, I -0.273 ± 0.16, D -0.063 ± 0.11, R -0.012 ± 0.046, W -0.127 ± 0.066
L67: V -0.563 ± 0.078, A -0.562 ± 0.1, P -0.613 ± 0.13, C -0.427 ± 0.12, F -0.698 ± 0.18, H -0.04 ± 0.2, S -0.829 ± 0.12, D -0.167 ± 0.13, I -0.321 ± 0.16, M -0.084 ± 0.077, W -0.81 ± 0.1, R -0.716 ± 0.075, E -0.951 ± 0.16, N -0.553 ± 0.28, Q -1.2 ± 0.3, T -0.711 ± 0.16
L66: V -0.18 ± 0.05, K -0.299 ± 0.094, D -0.822 ± 0.24, W -0.33 ± 0.066, Q -0.4 ± 0.12, G -0.78 ± 0.075, E -0.936 ± 0.14, M 0.162 ± 0.064, Y 0.053 ± 0.12, I 0.035 ± 0.1, S -0.767 ± 0.1, F -0.031 ± 0.12, A -0.226 ± 0.063, P -0.644 ± 0.15, R -0.504 ± 0.061
Q54: H -0.035 ± 0.14, V -0.497 ± 0.1, K -0.098 ± 0.079, A -0.089 ± 0.063, R -0.195 ± 0.051, T -0.145 ± 0.064, P -0.62 ± 0.15, C -0.441 ± 0.15, F -0.858 ± 0.34, L -0.376 ± 0.085, W -0.669 ± 0.11, N -0.187 ± 0.096, I -0.316 ± 0.14, E 0.011 ± 0.064
W70: H -0.374 ± 0.23, M -0.756 ± 0.19, C -0.762 ± 0.2, V -0.58 ± 0.069, S -0.348 ± 0.07, R -0.679 ± 0.077, P -0.93 ± 0.21, F 0.086 ± 0.11, Y -0.296 ± 0.18, Q -0.881 ± 0.2, A -0.689 ± 0.1, I -0.707 ± 0.29, L -0.549 ± 0.072, E -0.753 ± 0.11, T -0.595 ± 0.17, K -0.756 ± 0.21, D -0.485 ± 0.16, G -0.687 ± 0.066
F50: Y -0.089 ± 0.22, W -0.742 ± 0.1, V -0.561 ± 0.075
K64: C -0.38 ± 0.13, M -0.042 ± 0.076, F -0.562 ± 0.3, A -0.199 ± 0.061, E -0.564 ± 0.11, S -0.405 ± 0.089, L -0.511 ± 0.09, P -0.643 ± 0.2, R 0.002 ± 0.045, D -0.653 ± 0.22, T -0.401 ± 0.096, Q -0.009 ± 0.075, N -0.334 ± 0.35, I -0.814 ± 0.37, V -0.164 ± 0.064, Y -0.564 ± 0.33, H -0.126 ± 0.15, G -0.911 ± 0.11
K58: H -0.07 ± 0.13, D -0.185 ± 0.21, I -0.045 ± 0.28, T 0.021 ± 0.074, C -0.53 ± 0.33, F -0.433 ± 0.35, R -0.142 ± 0.049, P 0.13 ± 0.069, A -0.096 ± 0.055, Q -0.012 ± 0.068, V -0.272 ± 0.073, W -0.303 ± 0.073, E 0.031 ± 0.057, M -0.024 ± 0.095, G -0.074 ± 0.046, L -0.347 ± 0.078, S -0.152 ± 0.084
M60: N 0.011 ± 0.21, V -0.701 ± 0.12, A -0.244 ± 0.064, K -0.09 ± 0.21, C -0.604 ± 0.25, Y 0.109 ± 0.28, G -0.673 ± 0.084, E -0.948 ± 0.16, Q -1.05 ± 0.25, P -1.18 ± 0.42, W -0.826 ± 0.14, I -0.811 ± 0.36, R -0.826 ± 0.1, S -0.448 ± 0.1, T -0.396 ± 0.12, L -0.256 ± 0.086
K62: Q -0.184 ± 0.082, M -0.075 ± 0.081, C -0.224 ± 0.093, D -0.268 ± 0.22, H 0.03 ± 0.12, P -0.882 ± 0.21, T -0.058 ± 0.083, L -0.119 ± 0.061, R -0.15 ± 0.053, Y 0.035 ± 0.17, F -0.278 ± 0.15, E -0.095 ± 0.074, G -0.365 ± 0.06, N 0.06 ± 0.18, W -0.449 ± 0.1
L53: T -0.336 ± 0.11, D -0.646 ± 0.25, R -0.052 ± 0.045, A 0.042 ± 0.054, Q -0.009 ± 0.11, K -0.135 ± 0.092, I 0.064 ± 0.11, P -0.759 ± 0.29, Y -0.112 ± 0.2, V -0.055 ± 0.05, N 0.319 ± 0.17, E -0.494 ± 0.12, F -0.256 ± 0.14, S 0.051 ± 0.058, H -0.111 ± 0.14, W -0.478 ± 0.076
N59: S -0.084 ± 0.059, W -0.223 ± 0.055, G -0.04 ± 0.04, Q -0.025 ± 0.075, C -0.198 ± 0.088, T -0.128 ± 0.087, H 0.096 ± 0.1, M 0.04 ± 0.064, K 0.042 ± 0.074, D 0.193 ± 0.063, A 0.08 ± 0.049, V -0.031 ± 0.047, I -0.197 ± 0.23, E 0.132 ± 0.063, L -0.074 ± 0.056, F -0.62 ± 0.22, R -0.017 ± 0.045
P65: E -0.193 ± 0.072, Y -0.158 ± 0.11, R -0.205 ± 0.051, G -0.167 ± 0.043, Q -0.451 ± 0.14, V -0.113 ± 0.05, W -0.389 ± 0.073, S -0.179 ± 0.064, C -0.139 ± 0.099, M -0.332 ± 0.1, F -0.175 ± 0.14, T -0.246 ± 0.083, D -0.053 ± 0.083, N -0.266 ± 0.16, H -0.173 ± 0.13, A -0.241 ± 0.06, K -0.156 ± 0.12, L -0.284 ± 0.066
A52: H -0.141 ± 0.17, I -0.56 ± 0.28, W -0.728 ± 0.19, S 0.036 ± 0.059, R -0.001 ± 0.051, D 0.041 ± 0.1, G -0.156 ± 0.046, K 0.163 ± 0.075, V -1.02 ± 0.16, P -0.929 ± 0.4, M -0.341 ± 0.12, N 0.23 ± 0.11, Q 0.021 ± 0.085, C -0.362 ± 0.26, L -0.275 ± 0.084
L63: T -0.582 ± 0.15, E -0.436 ± 0.13, R -0.766 ± 0.093, N -0.117 ± 0.32, P -0.769 ± 0.17, G -0.643 ± 0.069, C -0.736 ± 0.17, W -0.605 ± 0.092, S -0.791 ± 0.13, K -0.887 ± 0.31, F -0.148 ± 0.12, V -0.315 ± 0.062, M -0.11 ± 0.093, Y -0.368 ± 0.14, D -0.297 ± 0.17
L55: M -0.132 ± 0.095, H -0.359 ± 0.18, Y -0.46 ± 0.2, T -0.746 ± 0.15, Q -0.645 ± 0.16, N -0.2 ± 0.17, E -0.438 ± 0.085, P -0.867 ± 0.18, W -0.764 ± 0.1, F -0.311 ± 0.2, D -0.479 ± 0.17, C -0.064 ± 0.081, V -0.45 ± 0.087, G -0.514 ± 0.059, S -0.323 ± 0.1, A -0.54 ± 0.098, K -0.535 ± 0.16
